Reference: publication PMC10140047, “BICD2 phosphorylation regulates dynein function and centrosome separation in G2 and M” (Nature Communications, 2023)
Residue numbers refer to the chain shown, from its start. Names may count otherwise.

B1: TwinStrep-BICD2 WT (natural protein, mouse, UniProt Q921C5 1-820, looked up)
chain: MSAPSEEEEYARLVMEAQPEWLRAEVKRLSHELAETTREKIQAAEYGLAVLEEKHQLKLQFEELEVDYEAIRSEMEQLKEAFGQAHTNHKKVAADGESREESLIQESASKEQYYVRKVLELQTELKQLRNVLTNTQSENERLTSVAQELKEINQNVEIQRGRLRDDIKEYKFREARLLQDYSELEEENISLQKQVSVLRQNQVEFEGLKHEIKRLEEETEYLNSQLEDAIRLKEISERQLEEALETLKTEREQKNNLRKELSHYMSINDSFYTSHLQVSLDGLKFSDDTVTAEPNNDAEALVNGFEHSGLVKSSLDNKTSTPRKDGLAPPSPSLVSDLLSELHISEIQKLKQQLVQMEREKVGLLATLQDTQKQLEQARGTLSEQHEKVNRLTENLSALRRLQAGKERQTSLDNEKDRDSHEDGDYYEVDINGPEILACKYHVAVAEAGELREQLKALRSTHEAREAQHAEEKGRYEAEGQALTEKISLLEKASHQDRELLAHLEKELKKVSDVAGETQGSLNVAQDELVTFSEELANLYHHVCMCNNETPNRVMLDYYREGQGKAGRTSPEGRGRRSPVLLPKGLLATEVGRADGGTGDNSPSPSSSLPSPLSDPRREPMNIYNLIAIIRDQIKHLQAAVDRTTELSRQRIASQELGPAVDKDKEALMEEILKLKSLLSTKREQITTLRTVLKANKQTAEVALANLKSKYENEKAMVTETMMKLRNELKALKEDAATFSSLRAMFATRCDEYITQLDEMQRQLAAAEDEKKTLNSLLRMAIQQKLALTQRLELLELDHEQTRRGRSKAASKAKPASPSL
notes: BICD2, mouse cDNA amplified from the pEGFP constructs into pLIB-TwinStrep-3C-BICD2; A 3C site lies between tag and protein; no cleavage is described; also called full-length BICD2 WT; wild type TwinStrep-BICD2; source: insect cells (baculovirus), purified (StrepTactinXT, Superdex 200); not shown: TwinStrep, N-terminal, kept
B2: TwinStrep-BICD2 S102D (natural protein, mouse, UniProt Q921C5 1-820, looked up)
chain: B1 chain with S102D
notes: BICD2, mouse, with S102D (pLIB-TwinStrep-3C-BICD2 S102D); A 3C site lies between tag and protein; no cleavage is described; also called full-length BICD2 S102D; S102D TwinStrep-BICD2; source: insect cells (baculovirus), purified (StrepTactinXT, Superdex 200); not shown: TwinStrep, N-terminal, kept
B3: GST-Rab6A (natural protein, human, UniProt P20340 1-208, looked up)
chain: MSTGGDFGNPLRKFKLVFLGEQSVGKTSLITRFMYDSFDNTYQATIGIDFLSKTMYLEDRTVRLQLWDTAGQERFRSLIPSYIRDSTVAVVVYDITNVNSFQQTTKWIDDVRTERGSDVIIMLVGNKTDLADKRQVSIEEGERKAKELNVMFIETSAKAGYNVKQLFRRVAAALPGMESTQDRSREDMIDIKLEKPQEQPVSEGGCSC
notes: Preloaded with either GDP or GTPγS before the pull-down

Assays:
GST-Rab6A = target: B3; test: pull-down; GST-Rab6 on GSH agarose beads preloaded with GTPγS, incubated 90 min at RT with purified TwinStrep-BICD2 in Binding Buffer (50 mM Tris pH 7.4, 125 mM NaCl, 5 mM EDTA, 0.1% NP40); blot with anti-BICD2; details: both partners purified
[1] = target: the molecule itself; test: SEC-MALS; purified TwinStrep-BICD2 WT and S102D; predicted MW of ~190 kDa
TwinStrep-BICD2 S102D = target: B2; test: pull-down; GST-Rab6 on GSH agarose beads preloaded with GTPγS, incubated 90 min at RT with purified TwinStrep-BICD2 in Binding Buffer (50 mM Tris pH 7.4, 125 mM NaCl, 5 mM EDTA, 0.1% NP40); blot with anti-BICD2; details: both partners purified

Binder | fold binding against Rab6 preloaded with GDP (GST-Rab6A) [fold] | stoichiometry N [1] | binding result (TwinStrep-BICD2 S102D)
B1 | ~5 |  | 
B2 | ~5 | 2 | 
B3 |  |  | binds
